The DeepSol protein solubility set

Experiment: soluble on expression in E. coli; label from the status in PepcDB or PDB records

Sequence | soluble on expression in E. coli
MAHHHHHHMSQKNKKVYDTQNEQENTNSSSNSSSNSDKEIQKDKEEYKKGENNFSILNVEEVNIIELSREELYKVCAELQQKELEALKYIYVLDSELNIKYENDEDKLTIVEINLNDQNISNNHINFTFELPKDYPLGSISIINVTVKNFTPDTNNYINEEVYRYLQRYNEQRECILPVIYKVNEIIENIIQYKEEPGEKSLSSSTEGRSDFDQEQTFNEWDNKNKQRKADIVCFPELSYSMNFSKRPNILARRLCYSHHILSLVKRSCIIKWAKQLKIGGYSKIGYPGIIVCEGPKDEVDFYINSLNKLRWKHFDCRGMEDIELDENENLDDARVLPTTVRELDAKSMRTLSDICTQCGLRDLFLTSMKIYNNNDKKGSVKEKNKNGEENKPGNTKDILKEKGKKKKKRSSK | not soluble
MAHHHHHHMSTMDVPGTAIEQYFNQLIQMRLLTQVIVSDTRGDTTVACLMGLEHGGDAVVSSSEDTYGVAESIMESNVALSGARCFQNLDQLNLGVPLYVSFQYHDDVVVQTLDGCCMLTLIGSRSQGHFVGGLLTLLDQIRSCEAYQELLTQTQLCFR | not soluble
MAHHHHHHMSTVEDFVLQALASTDAVESDKLAETLRVNHQDVVGAIKSLEADGYVVSEIKPKPTWKLTSEAENICESGSPEFLLWELLAGGAMTQEDIAEKFGKDVAAVAVANGMKAKIFALNKSEGKIIVTRSPSVSSFHDGIRVSLMRALKGEHVDPKEAETLKKRKLATLDNMKVFFVTKGPNYATQRRAKAVGDLTKEMLQDGSWKTAHFKEYNLGAAGREVGCGQLHPLLKVRQEFREIFMELGFREMETDRWVESSFWNFDALFIAQNHPARDVQDTFFVSKPSTHKLDHREVVDRVREMHEKNFNYTWKEEEARRNVLRTHTTCCSGYWLHHIAKSSPLLPNGRRDFCPGRYYSIDRVFRNEEMDRTHLCEFHQVEGCVIDRNISLSNMMHTFQLFFSRIGVEKLRFKPVFNPYTEPSMEIFGWHKQLKRWIEVGNSGLFRPEMLVPLGFDEDVTVMAWGLSLERPTMIKYGLSSIHELFGHKVDLRFIKQSKLMRF | soluble
MAHHHHHHMSVPKAALMQIFDLYDTDRAGWIPTKRIPYVLRTCGMISTQTEMETLLHDHFASRDTVTRSGFQKFLEQKDILKAEDFSSEKELATAFQVFDSRESGALTSDEVLTILTRMNEKIDVDAYHRVMDGLELNEQGMVEFAKLAAHMLRSANEYKLTVRQVLEELAE | soluble
MAHHHHHHMSVSSPLASSGEREQYGPQEQRQYGFVPVQMTNLVPVRVVSVHGDFFDMEIHQDAPLHIVQRAAEDCFKVRPELQLLTHNRKPINPNQSLRRNGCLLLKGDPFVKIVLDVKKGSRLNIVCQMAHCEPIPLACEAEDTIWDVKKKFCSSLEKSEVTPQRIRLLWRYWELNDKATVDYYHIPTNSKLTVMKKRDILGGQQTERRRAPSQRRRQDVQRRHERCDADTDDVAAWPKAPSVVPPYEKYRQASGREPLEGEDNRSKTPNANGSAQVVEGGADRDSHHPPIRAWPALPQEQFGRAVIPLYPIVPPLSGGSYYREPRAQTPDRRPAVVPVAEATQVVDFTEVQRLRMEVEELGRRMETCVTDRAEFSAMEESFRAAVTRVSELEASVGRVQNLLKRALHLM | not soluble
MAHHHHHHMSVTIKLSNGSQKTVEVPDLNITVAKFKEIASAVTNIPADEQRVVLRGRVLKDGDVLSAMGMEHGQAVHIVRGQKSTKSDVASPSAQESASTQETQTNTNPQARPETVNPYAALAANLPASGGFSNNIPGNPNPGLQMPPELLSNMLQNPAFMQYFQEMMRNPQFLQQRMQQPQQQSQSQSPFGMNEGEMQRLLNNPMFMQLVLQMMSDPSIMQQLTQSLGGGFPASNTPLFGQQNAPAPNFAQNTGFFQPQGDPRVLYQSQLQQLREMGFTNEQANLAALEQAHGNIDFAIERLLNA | soluble
MAHHHHHHMSWRARFTPCVGSLTVWLNPKDPNCFGVRNWWRNNLPELQLLNPFCTFTIQELSFGEPHMYVNYTPTDQRMIRLAGATEEECEEIMEACITYGMNHAIIERPRTDDGGDLVNQPAITSFGYTESFTAKLEVAPPADIGQKTTEGVDDPGQKPRLYPRNVGCKLMP | not soluble
MAHHHHHHMTAAADFALPDLVLFLRLYDSANVEDGQLLVQVMNEIHRQLFALAETAADAAVARGGSSTPSMAGTTIGEHDLDAANRGVKGISPAPSASPLPLPAMLYTMSSLGIVEEAVLDVVTSSAVQDGARGRRGLLYSQLRLYSVADLLQLLVALHRFGHQQQPSTKAVTMALRASLYRTSTTASRFHRRARSLKRALAARPQTPSSGEGRADAAAADADTGGVAAVIAADEELSSLAFGLGCPLFLLLEALTATATTVHRRTDVVAFLSDLIAVTAVAELTTAVHESRGRRSPAGCEDLAREAQEFVFAVSHQLLRAAKLTECMELPQILLSDVFAWSTTLSGRGVFVDGGEDNAVPSDRVAYYDHVTADLIKANSAE | not soluble
MAHHHHHHMTALERYAFKVDYCDPQANLVRQYLLLYFAEDSTIEMHDLKTKRVFLKRCAYPSLTPRELFIGATVGVFSRSLKLVDYGDEVTRRHFSGSEAEFVVFIQEGGLCHMGSIIDRMHTWELRITNIRLVDLPDSLCRDLGVSRRCVAILFKGSNAIEKVGGLSTEFPNMTVVVAEPSDVNSVRGAAFGPGGTTAVMKNCSVCVIKPHAIMSGYQGAIIQRLIDEGFHITALGMYSLTVADAEDFLEVYNGVVPEYQRLVEQMSSGPCWAVQVCAENSVSALRAICGPHDPDVCHVLFPHTIRSKYGVDRTRNGVHCTDLEEDAPLESEFFFSLLQNA | not soluble
MAHHHHHHMTDVVEAPRPATVAEAFANTAKALEQFNIERIRVEGLSCKSSITHCRKHDKNNMEKEEDVRTLTEQAFMREFVFQSRPCVIVGALEDWPAMQRWRDDRYLFDLDGHLSRVRRETDDAAAPSSEGTAATGDVAVVPKNNDHDSSDDNTHPREREEEKDGLKRVTVALTPNGRADAVTYVTYQGAREEGRENDVDGKKDNVEEHFIKTEKLFMAAAEIRATLPELYHLLRENPLYPPVRPVFVDLRRPAPVVAYAQMQNNCLEVEYQHLHGDIPPELDRFGERVFGEPHEAANVWFGTPASVSSMHQDWVENLYAVVRGVKEFILLPPWEGVFVPKPELPSAAFSVQRQDGVNGYVFSGTPVHDGLTIPWMDVEFTPAALEDVSLMPTNMQERLHPLVVYVQPGEVLYLPAMWLHRVAQHADDTDRLAREKQLTSSLQSAQDPPLPLIAAVNYWYDMSFTNPAVVMLREFGLLL | soluble
MAHHHHHHMTLKEAIDRDGVPATSSSKQRRLMDIHVTAYPGLVNQHMLPKHNTAVNDFSSIDPLQYRKAHTVRNNNAASYSEKEENVLDMLTTNQCTNRMTRLGMQLREERAKNPKGMPSISSLAPRGYRSRFLSPSFDERSTYRWDYCQWEPDGFHDTVRRELLAAYRDDWTEDEKADVDISMKIPYLTMAVSSDRLKDKATIYRKDFMEDATQADYRSLSYKTNLEDLGTSYAYSAYSIDDPRRKVLFDASVAALKTPHSVLEKTYSPRNSFLEKSLSTKQQSSAREELDRLRTMRREALHLSAAKRSAAESTDDGTTTKTVVIPGIKGSGYRRVPKGNDSYVCLSRDHFCYQQVDNF | not soluble
MAHHHHHHMTTLTHSRPRPLHLPLSPPHTRKNDGAAPAPAHTHPSHFLSVAITVTHTDFVTGTIMKSFFSNITSKLKTRRKPLAPCDCSDFIEAAPAQPSLTHLRGVVAARHFHGAPPPASDVENARRDFVVRSTVFDLQHRCGAGGRCTCAGAPACRFPQCFTMRPVTKGAEVLAERQVYEVEDAPTPEIRALVALAAEEKLEEVVKGIQHTVDAHLKAAARGRGLEARFIIDGSDGHEFTPATPKTGTGSIHAGANPLREDEDLREEITSLYLWRAALLVNLRRDEQAVSSLLNLAFAVEQKDRTRLYGAAAAWAVLNDMEIIYYRSLVKSCKPFDQAVHFATERPLLLARVFEATRGDDYHTDYCTHVVFSKEVTATVTRAQTAQMHGDFTEDPMRSLCLPLTMPYYRFRVDEEFWKRFYALLCMPPVPPPTQEEAKAQAIDPAAELGLTPNYILDAVGRSMMLHHLVTFADVRDKEIDTGVVVDRVKEMKLLDLQPHPSDYTPVLTTSEMHVAVTRMKELLVVVRSFEAKEQERLSGAAAAQRLQRAQSGNDAANPSAAPPAPSPIEK | not soluble
MAHHHHHHMTTVPESTCAASCESQLCLLCDTPYTSWTEHSREHAHVARSVVCRFFVMPERSESIMQHLERHIALDLKEVDALTDRKVGRRRERLLAGLVHLVEKGVLRDSIPTLPFSTPARGGTDKGRGAGISGVTLGVDADLFLNRVLVGEAFLRREVLDRCARLMPSLTAMELNSVVTYLTSTRQMARIFDELSLIELLVTRSGLESAPANVNTATAAATAAGRAAESASVEPLSETAAAPLPDSDASTESPPAHQPCSSTLAASLPSPPRWSLSREDKVYIMCACLGELHRFHEQERPRSVISKAAADAIVLNVLAGHGRENLVSELVHETLQRIVDEGTVVWRQHQEDVKRRGRSSEANVAGAARISARRAPRTDSTVSEDLCYVRTAPLPSAPSPRPASQVTLDSAAAEQLVSSYLPFNDVDQLSGAETDAVKATAEAPSRSSPDRTCTTSPECISVLHTSEKDWGPLTAELRKRAEDWNRLPFVPSTPELKASKMPR | not soluble
MAHHHHHHMTVYPSLFVCHGGGPLPLLRDEGHKMLVDALKSHRKLLENRFGLPKAIVVISAHYETNTPKVGGAERPSLLFDYYGFPEESYKFRYPVPGNAPLAAAIVNALTVGGFHAEMEPERLLDHGVFVPLMIMFPEANIPVVPLSVLRSGDPAEHIRMGKALRPLRSDAVMFIGSGSTMHHFAHFNREGAGRKFGDALTSILCKNEVATLPEDRLKAMERVKTMEGFTEAQPLREHEHLMPLLTLVGAANGNIAEEVASISFGRANVRNYLFTE | not soluble
MAHHHHHHMVATITFKLRSSNHVGIIEVPHRVISCREIKEAIAEKLSGSPDEIDIFVSGSSDYLHPNDELPAYTVVEVVRHVGTGRPPPKREREPVGPSNLSSAMSHAAVRAGNKNGDTATPLTEEERLAQLSEAVAVETGIDEVGAWRMRQMRNRSAAMGGGGREVTFRPPPPGYICHNCGKRGHLIQHCPAAKGVRGVKLLSLPTGIPETMLVECTMDDPAAKFVTRDGRLVKRKLDNASFVGIVTTSNADGVKPDFPSEGGNNRNDSPNSEKLETPDAGGDAAAKPQFLCAWDSVIVKNAMKAPCCGALFCETCLNERVEEAISRADASEIPLLCPGCEEPLDVPDVVEATEERKLVEALRSGKRARD | not soluble
MAHHHHHHMVGIKYRKNFCDKMLRRTQQRAISQYKFGQPSLTRAFGPVPRERQVAQAGKFMSTKLPNGVRVVSHDLDGAHSVVGVYVEAGPKYDPLGCPGLSHVMRYAIQTSNMDSSLFQVDRTMRSTGNAYGHGEICKRYIHWKTEGRRDMWEKPFAMIATGVVAPRFHESDLERFRDTMDNQREELRWQNPREYCVDALETVAFFKEPLASPRMVPPESNDRCNQKVLLDHWAAYFQPGNITVAAVNIPHDALLAAYTSLPYPHSAEAPHHARSRPPTLSHASESAQFYPGRQYIVYEDRAKNMGTVPDMKEEVIAALGAPTFGRDEDVKKYATALVAREVYQASIESVMPAALTTSHGVQSFYRPYSSAGLIGITIRGAPKEIAGFLDAARGCFPIKVKDDEVAAGRARAAMAFTRNHLDMVRDYCDFIATLSVTPQQLMEAIGAVSAGEVDAALRTLSAVPPAVFVTGSTFTFPKVPSLKK | not soluble
